The supplement of paper PMC12042874
± gives the uncertainty stated by the source.

Test: amyloid nucleation score (Sup35N fusion, yeast selection) (log enrichment); library NNK3; higher = more nucleation; inactive = no reads after selection
Procedure, shortened: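 The nucleation score is the DiMSum log enrichment of output over input reads, centred on the mode score of non-aggregating sequences. Only sequences with 100 or more input reads were scored, using Illumina sequencing of input and output plasmid inserts. Psi-negative yeast expressing Sup35N fused to peptides of 20 random codons were induced 24 hours with 100 μM copper sulfate and grown 7 days at 30°C on medium lacking adenine and uracil.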
With FSGNRSGESSVRWNQYELGV the amyloid nucleation score was “inactive”. In the case of MILKNWNVSISRGSRFNSYV, the amyloid nucleation score is reported as “inactive”. In the case of FAAARSYFKLFHIYCDDVTG, the amyloid nucleation score is reported as 1.96 ± 0.071. In the case of RTRFVCICTSSNSLLYGRSS, the amyloid nucleation score is reported as 0.714 ± 0.25. In the case of DYSIAVGYWSFHVN, the amyloid nucleation score is reported as “inactive”. For YVSLCTTPVGERTSYSCDIH, the amyloid nucleation score was “inactive”. Work on IIAGGTYECQIQIVYF yielded an amyloid nucleation score of 1.22 ± 0.14. In the case of MSYSFKAISAHNKQSVNNVW, the amyloid nucleation score is reported as “inactive”. In the case of CTGCTFRYEKKDYNLGCLCK, the amyloid nucleation score is reported as “inactive”. In the case of WTLRFLVKGSRCQFVAP, the amyloid nucleation score is reported as “inactive”. For IYSNSPDRPEFHCNSRCGDG, the amyloid nucleation score was “inactive”. For LHSSNCCNEIVMRNRCWRKF, the amyloid nucleation score was “inactive”. With TWLIGHGAVIVRLYNFYMAI the amyloid nucleation score was “inactive”. In the case of NRVDIRLVKCYWSGDSGGVE, the amyloid nucleation score is reported as “inactive”. With YIIICLGMWCYSNVGSKTGT the amyloid nucleation score was “inactive”. With YDSRWLDGSACKNKVQFGCQ the amyloid nucleation score was “inactive”. In the case of HSRWMAFPWMLGPLLLNRNL, the amyloid nucleation score is reported as “inactive”. For SFLHTQSAKDTFVHNAVTYT, the amyloid nucleation score was “inactive”. In the case of DCKMRIEICDMGLCTEHRKC, the amyloid nucleation score is reported as “inactive”. RNTLARKFVIRFTIFNAWSN showed an amyloid nucleation score of 1.28 ± 0.11. In the case of DCDQVPI, the amyloid nucleation score is reported as “inactive”. With SVALYVPLQSYSQQFLEVAT the amyloid nucleation score was “inactive”. SARYDFSYEYGRIKYRELDR gave an amyloid nucleation score of 1.1 ± 0.15. For YPMLLALYTGSVFNFNRCRL, the amyloid nucleation score was 2.07 ± 0.089. For RDGHIQMCFIWVKRDNCQVF, the amyloid nucleation score was “inactive”. With NLAMWMDSECLRVSN the amyloid nucleation score was “inactive”. With VQWCQDAFVIV the amyloid nucleation score was “inactive”. Work on YLDFDRMFVQCEFCLTDLDL yielded an amyloid nucleation score of 0.59 ± 0.13. In the case of GICNQNIPQRGSMWLVSKTF, the amyloid nucleation score is reported as “inactive”. In the case of ICMSMNMSADPGMPAIMFNY, the amyloid nucleation score is reported as “inactive”. For VNSRCI, the amyloid nucleation score was “inactive”. Substance WVQVCCVNTNGRSFQLEGSI has an amyloid nucleation score of 1.36 ± 0.097. For RNSKLSCNVDTKSCFVECMN, the amyloid nucleation score was “inactive”. With TIRFGSSLPCNPDSSYLLRI the amyloid nucleation score was “inactive”. ESSNNPFFDQAYIYIKFY showed an amyloid nucleation score of -0.42 ± 0.9. In the case of FPVYQCWLSN, the amyloid nucleation score is reported as “inactive”. In the case of GELRPLIVGDNLGLS, the amyloid nucleation score is reported as “inactive”. With QSLRRQYLNYIRSIFESMEN the amyloid nucleation score was “inactive”. ICYRWY showed an amyloid nucleation score of 0.192 ± 0.19. For VGYAKYPSNRVRIYRGFENV, the amyloid nucleation score was “inactive”. For TFVVGRVITWKNQVCL, the amyloid nucleation score was “inactive”. In the case of QSHIVSRGLAEENTW, the amyloid nucleation score is reported as “inactive”. In the case of LSNDQSDTMEKCRRSVTLW, the amyloid nucleation score is reported as “inactive”. With TRFLCSGV the amyloid nucleation score was “inactive”. In the case of EIICLSLLCS, the amyloid nucleation score is reported as 2.18 ± 0.053. With PGFLGVPTACPLVSYDAVYP the amyloid nucleation score was “inactive”. In the case of PYAILFNAWNLSAPMACSWV, the amyloid nucleation score is reported as “inactive”. For CEMGFLEPL, the amyloid nucleation score was “inactive”. With PCICMVIQSGLDEYAYHVQR the amyloid nucleation score was “inactive”. AIYRIWCYGA showed an amyloid nucleation score of -0.088 ± 0.9. In the case of WVLDSERQMANSLWSGGGLA, the amyloid nucleation score is reported as “inactive”. For LAPRSMGIATSSHGSSNVIG, the amyloid nucleation score was -0.387 ± 0.88. VQTSHHNAVEICCMCLCQML gave an amyloid nucleation score of 3.02 ± 0.065. In the case of IKYLNLVRSVPLFS, the amyloid nucleation score is reported as “inactive”. In the case of SAEVF, the amyloid nucleation score is reported as “inactive”. In the case of FYPLYSNEHCCG, the amyloid nucleation score is reported as “inactive”. SVDGDLAEDNMLMVSFSIGK showed an amyloid nucleation score of 0.128 ± 0.54. With LFGGCLSLDDIVTDRLMTCF the amyloid nucleation score was “inactive”. For GNSAYK, the amyloid nucleation score was “inactive”. For QQKGHTYKLLYNGGRLYFPT, the amyloid nucleation score was 0.29 ± 0.51. Substance VFVKLQHVGMSLGSFFPGSM has an amyloid nucleation score of 0.85 ± 0.19. For LDERCLLVGMAYMLVCY, the amyloid nucleation score was “inactive”. FRQYKSPGDLPRMDAVACGK gave an amyloid nucleation score of -0.832 ± 2.5. In the case of NFGQKQNIWAWTVYCPDPCE, the amyloid nucleation score is reported as “inactive”. YRFSRFKMRAVPTMILKLNV gave an amyloid nucleation score of -0.056 ± 0.35. In the case of VTNRIGLV, the amyloid nucleation score is reported as “inactive”. For GANKVSNRRVMSSDPTSQCL, the amyloid nucleation score was “inactive”. For NWLLRYLYCRTNFGCCYR, the amyloid nucleation score was -0.552 ± 0.7. With KYINFSLNS the amyloid nucleation score was “inactive”. With VYIWRIMTTEIWVRVTWYAG the amyloid nucleation score was “inactive”. In the case of NILLND, the amyloid nucleation score is reported as “inactive”. In the case of YFANTVRTFLVLLQAFVLVV, the amyloid nucleation score is reported as “inactive”. With RILMCMLYAAGSMARYPIWG the amyloid nucleation score was “inactive”. In the case of PSYFVI, the amyloid nucleation score is reported as “inactive”. In the case of TLIFFDKDYYCGVRQMWNVG, the amyloid nucleation score is reported as “inactive”. With MKRGDDLHTLFITSVPKSGY the amyloid nucleation score was “inactive”. For RMGVPTSYPDPDLSNDVER, the amyloid nucleation score was “inactive”. In the case of RTKKMRNGASHRVMS, the amyloid nucleation score is reported as “inactive”. In the case of KLTFNRLLKT, the amyloid nucleation score is reported as “inactive”. Substance LPWSINRCNRVENQLVYVWN has an amyloid nucleation score of 1.1 ± 0.14. In the case of ECADLWARLYHFF, the amyloid nucleation score is reported as “inactive”. With FPLDRGYSVTGDMRMPPAVR the amyloid nucleation score was “inactive”. SLMKPKSVMEAKVIRINLCL showed an amyloid nucleation score of 0.494 ± 0.28. With SNGHFAVGDDPEK the amyloid nucleation score was “inactive”. Work on WRSMAFPVVK yielded an amyloid nucleation score of 0.988 ± 0.13. With VISCCP the amyloid nucleation score was “inactive”. In the case of WNLFDHRIGNKQRNGYDVYE, the amyloid nucleation score is reported as “inactive”. For VIQGLYSSFMHVYG, the amyloid nucleation score was “inactive”. For LFMRCSYCSV, the amyloid nucleation score was “inactive”. With IFQRKRRTYLS the amyloid nucleation score was “inactive”. For HFSKHTVTNRPYDVHNLGKC, the amyloid nucleation score was “inactive”. For PECVVKSTN, the amyloid nucleation score was “inactive”. For QAQIYWM, the amyloid nucleation score was “inactive”. In the case of SSTTE, the amyloid nucleation score is reported as “inactive”. Work on SMASK yielded an amyloid nucleation score of -0.64 ± 0.82. For RSQFV, the amyloid nucleation score was “inactive”. For NRYLFLIGSA, the amyloid nucleation score was “inactive”. With PVHGVGLAIRGSYGSYTGLL the amyloid nucleation score was “inactive”. Work on FYEVRVRRVRVHVKEQPLLH yielded an amyloid nucleation score of -0.406 ± 1.3. With FCIECYL the amyloid nucleation score was “inactive”. In the case of LHITVEIWTLWK, the amyloid nucleation score is reported as “inactive”. With MTYAVCGYSIFHKITRTRFG the amyloid nucleation score was “inactive”. In the case of VEKCKLLFVTTHECLCHCSR, the amyloid nucleation score is reported as “inactive”. Work on RKTRDSCTMGSNTTWRVIFC yielded an amyloid nucleation score of 0.158 ± 0.49. Work on FCEDSRMSYKFYVSCIFAHS yielded an amyloid nucleation score of 0.636 ± 0.14. In the case of SGRIRVSKSSTGKSLSTSII, the amyloid nucleation score is reported as “inactive”. For IKAYSRRSLSSSG, the amyloid nucleation score was “inactive”. HVFIEFGKL gave an amyloid nucleation score of -0.259 ± 0.42. For VFFETNVMGQEWYGGHVKR, the amyloid nucleation score was “inactive”. With TLSIEMGQLDRERVGLNCKR the amyloid nucleation score was “inactive”. For ITMLMLATVKYSFYADLRFL, the amyloid nucleation score was “inactive”. For FDGVGYATSIMEGNDSG, the amyloid nucleation score was “inactive”. In the case of TNNTKERYIHLSFMTKWWTF, the amyloid nucleation score is reported as “inactive”. In the case of VMDIVHPSSDAVVGRA, the amyloid nucleation score is reported as -0.125 ± 0.53. In the case of SSDSKGFHGFGWFFWISLVT, the amyloid nucleation score is reported as “inactive”. For MKPSKGVDL, the amyloid nucleation score was “inactive”. For GVPMCSWGMIILL, the amyloid nucleation score was “inactive”. For EMRKAIRRL, the amyloid nucleation score was “inactive”. For HPSVVLHGEATCTASRVLQV, the amyloid nucleation score was “inactive”.
